What all share (experiment): cell-based or functional assay
The target of test [1] is T1, HTRA1 (cat) (human, UniProt Q92743 158-373).
Test [2] deals with T2, HTRA1 (full) (human, UniProt Q92743 23-480).
The target in test [3] is T1, HTRA1 (cat). The source holds these as a separate data set.
The target in test [4] is T2, HTRA1 (full). This is another data set of the same source.

Where two headings read alike, the source gives them in different places.

T2 sequence (Q92743 23-480): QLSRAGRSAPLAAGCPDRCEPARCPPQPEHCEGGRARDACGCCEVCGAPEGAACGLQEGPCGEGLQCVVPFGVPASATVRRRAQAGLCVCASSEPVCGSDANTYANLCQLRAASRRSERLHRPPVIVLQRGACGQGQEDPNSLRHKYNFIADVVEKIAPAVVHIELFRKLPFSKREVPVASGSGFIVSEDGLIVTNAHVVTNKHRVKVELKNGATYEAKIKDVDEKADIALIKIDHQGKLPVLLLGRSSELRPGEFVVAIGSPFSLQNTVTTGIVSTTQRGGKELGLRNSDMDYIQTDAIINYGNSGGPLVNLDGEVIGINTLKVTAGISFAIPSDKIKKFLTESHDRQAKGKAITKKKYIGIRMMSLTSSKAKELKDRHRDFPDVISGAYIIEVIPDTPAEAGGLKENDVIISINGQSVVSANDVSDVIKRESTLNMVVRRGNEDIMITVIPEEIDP
T1 sequence (Q92743 158-373, form in doubt): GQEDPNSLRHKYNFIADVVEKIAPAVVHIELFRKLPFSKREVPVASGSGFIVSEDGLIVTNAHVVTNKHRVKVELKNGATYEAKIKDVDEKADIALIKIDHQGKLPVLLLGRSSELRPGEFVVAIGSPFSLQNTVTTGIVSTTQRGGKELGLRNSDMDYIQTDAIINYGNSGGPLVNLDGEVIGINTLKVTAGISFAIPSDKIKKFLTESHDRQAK

B1: peptide derivative H322AT (designed binder)
chain: DPQFGLFSKYRTPNCSQHEGMACYALYEPVCGSDMSTYANECTLCMKIREGGHNIKIIRNGPCGG
Regarding B1, in the test with HTRA1 (cat) [1], the “IC50 (nM) for HTRA1 (cat), decomposition rate of substrate peptide H2-Opt” value (“IC50 (nM) for HTRA1 (cat)” for short) amounted to 45 nM. In addition, the “IC50 (nM) for HTRA1 (full), decomposition rate of substrate peptide H2-Opt” value (“IC50 (nM) for HTRA1 (full)” below) with HTRA1 (full) [2] is 25 nM.

B2: peptide H228 (designed binder)
chain: DPQFGLFSKYRTPNCGHYNGWACQAFFEPVCGSDMSTYANECTLCMKIREGGHNIKIIRNGPCGG
As for B2, the “IC50 (nM) for HTRA1 (cat)” value in the test with HTRA1 (cat) [1] turned out to be 71 nM. Moreover, the “IC50 (nM) for HTRA1 (full)” value in the test with HTRA1 (full) [2] came to 38 nM.

B3: peptide M7 (designed binder)
chain: DPQFGLFSKYRTPNCSDHAGMACVAFYEPVCGSDMSTYANECTLCMKIREGGHNIKIIRNGPCGG
Turning to B3, in the test with HTRA1 (cat) [1], the “IC50 (nM) for HTRA1 (cat)” value is 43 nM. Also, the “IC50 (nM) for HTRA1 (full)” value with HTRA1 (full) [2] was determined as 24 nM.

B4: peptide H322 (designed binder)
chain: DPQFGLFSKYRTPNCSQHEGMACYALYEPVCGSDMSTYVNECALCMKIREGGHNIKIIRNGPCGG
In the case of B4, the “IC50 (nM) for HTRA1 (cat)” value with HTRA1 (cat) [1] turned out to be 50 nM. Also, the “IC50 (nM) for HTRA1 (full)” value with HTRA1 (full) [2] came out at 17 nM.

B5: peptide H223 (designed binder)
chain: DPQFGLFSKYRTPNCTMDMGMACWAFYEPVCGSDMSTYANECTLCMKIREGGHNIKIIRNGPCGG
In the case of B5, the “IC50 (nM) for HTRA1 (cat)” value in the test with HTRA1 (cat) [1] worked out at 41 nM. In addition, the “IC50 (nM) for HTRA1 (full)” value with HTRA1 (full) [2] was found to be 66 nM.

B6: peptide H321 (designed binder)
chain: DPQFGLFSKYRTPNCSDFDGMACYAFYEPVCGSDMSTYMNECALCMKIREGGHNIKIIRNGPCGG
Take B6: the “IC50 (nM) for HTRA1 (cat)” value with HTRA1 (cat) [1] came to 48 nM. Also, the “IC50 (nM) for HTRA1 (full)” value with HTRA1 (full) [2] was 29 nM.

B7: peptide derivative H308AT (designed binder)
chain: DPQFGLFSKYRTPNCSDHAGMACVALYEPVCGSDMSTYANECTLCMKIREGGHNIKIIRNGPCGG
Take B7: the “IC50 (nM) for HTRA1 (cat)” value with HTRA1 (cat) [1] was 49 nM. Besides, in the test with HTRA1 (full) [2], the “IC50 (nM) for HTRA1 (full)” value amounted to 31 nM.

B8: peptide derivative H321AT_D1G_S16A (designed binder)
chain: GPQFGLFSKYRTPNCADFDGMACYAFYEPVCGSDMSTYANECTLCMKIREGGHNIKIIRNGPCGG
Take B8: the “IC50 (nM) for HTRA1 (cat)” value with HTRA1 (cat) [3] was 9 nM. In the test with HTRA1 (full) [4], the “IC50 (nM) for HTRA1 (full)” value worked out at 12 nM.

B9: peptide derivative H322AT_D1G_S16A (designed binder)
chain: GPQFGLFSKYRTPNCAQHEGMACYALYEPVCGSDMSTYANECTLCMKIREGGHNIKIIRNGPCGG
In the case of B9, the “IC50 (nM) for HTRA1 (cat)” value in the test with HTRA1 (cat) [3] stood at 12.9 nM. Besides, the “IC50 (nM) for HTRA1 (full)” value with HTRA1 (full) [4] was found to be 12.2 nM.

B10: peptide derivative H308_D1G_S16A (designed binder)
chain: GPQFGLFSKYRTPNCADHAGMACVALYEPVCGSDMSTYENECVLCMKIREGGHNIKIIRNGPCGG
B10: the “IC50 (nM) for HTRA1 (cat)” value in the test with HTRA1 (cat) [3] amounted to 7.9 nM. In addition, in the test with HTRA1 (full) [4], the “IC50 (nM) for HTRA1 (full)” value was 9.1 nM.

B11: peptide H218 (designed binder)
chain: DPQFGLFSKYRTPNCLKSEGMACYAYYEPVCGSDMSTYANECTLCMKIREGGHNIKIIRNGPCGG
In the case of B11, in the test with HTRA1 (cat) [1], the “IC50 (nM) for HTRA1 (cat)” value worked out at 72 nM. For the same molecule, in the test with HTRA1 (full) [2], the “IC50 (nM) for HTRA1 (full)” value was 55 nM.

B12: peptide derivative H321AT (designed binder)
chain: DPQFGLFSKYRTPNCSDFDGMACYAFYEPVCGSDMSTYANECTLCMKIREGGHNIKIIRNGPCGG
On to B12, for which, in the test with HTRA1 (cat) [1], the “IC50 (nM) for HTRA1 (cat)” value amounted to 46 nM. The “IC50 (nM) for HTRA1 (full)” value with HTRA1 (full) [2] worked out at 18 nM.

B13: peptide H308 (designed binder)
chain: DPQFGLFSKYRTPNCSDHAGMACVALYEPVCGSDMSTYENECVLCMKIREGGHNIKIIRNGPCGG
Take B13: in the test with HTRA1 (cat) [1], the “IC50 (nM) for HTRA1 (cat)” value worked out at 37 nM. The “IC50 (nM) for HTRA1 (full)” value with HTRA1 (full) [2] is 15 nM.

The values above are taken from patent US20200377573A1 (Daiichi Sankyo, published 2020).
